One data set deals with T-47D cells. Description: In vitro cell uptake (internalization) study in T-47D cells. In kind it is cell-based, human. To be noted: after 4 h, % of total added activity. The protocol: Cell culture. All cell lines were grown in suitable culture medium at 37 °C in a humidified CO2 (5%) atmosphere. The human breast cancer cell lines T-47D, MDA-MB-231 and MCF-7 were grown in Dulbecco’s Modified Eagle Medium (DMEM), supplemented with 10% (v/v) fetal calf serum (FCS) and 1% (v/v) L-Glutamine. For a high expression of the NPY(Y1) receptor on T-47D cells, the medium for this cell line was further supplemented with 0.15% (w/v) β-estradiol. The BT-474 and PC-3 cell lines were grown in RPMI-1640 medium, also supplemented with 10% (v/v) fetal calf serum (FCS) and 1% (v/v) L-Glutamine.
Internalization studies. Cells (T-47D, MDA-MB-231, MCF-7, BT-474 and PC-3, 1.5 × 10^6 cells per well) were seeded into 6-well plates and incubated overnight at 37 °C in a humidified CO2 (5%) atmosphere. The next day, the medium was removed and the cells were washed twice with the respective medium without supplements (ice-cold, 1 mL) and incubated with 3.7–4.0 kBq (0.37–4.0 pmol) of the respective ^68Ga-radiolabeled ligand [^68Ga]22−[^68Ga]26, [^68Ga]27 or [^68Ga]28 (in 1.5 mL medium, containing 0.5% (w/v) BSA) for defined time-points of 1, 2, 3 or 4 h at 37 °C in a humidified CO2 (5%) atmosphere. A 1000-fold excess of the respective peptide (3 or 4) was used for blocking to determine the non-specific cell uptake. At each time point, the medium was removed and the cells were washed twice with the respective medium without supplements (ice-cold, 1 mL). Cells were treated twice with 1 mL glycine buffer (ice-cold, 50 mM glycine, 100 mM NaCl, pH 2.8) for 5 min at room temperature, followed by 2 mL NaOH solution (1 M) for 10 min at 37 °C. The supernatants were collected and the radioactivity measured in a gamma counter. The internalized and surface bound activity was expressed as percentage of measured to total added activity. Each data point was generated thrice in triplicates.

Data set [1] can be described thus: Determination of radiotracer lipophilicity (logD, phosphate buffer/1-octanol). It is filed as physicochemical. To be noted: phosphate buffer (0.05 M, pH 7.4) / 1-octanol, six independent experiments. Here is the method:
Determination of radiotracer lipophilicity. The heterobivalent ligands (22–26) as well as the monomeric reference compounds (27 and 28) were radiolabeled with ^68Ga as described before and 2 µL of the product solution (~65 pmol of the respective radioligand) were added to a mixture of phosphate buffer (0.05 M, pH 7.4, 800 µL) and 1-octanol (800 µL) and incubated for 5 min at ambient temperature under vigorous shaking. Both phases were separated by centrifugation and 100 µL of each phase were measured for radioactivity in a gamma-counter. […] (cpm = counts per minute), cpmw = activity in the aqueous phase [cpm]. These experiments were performed six times independently.

Data set [2] is described as follows: Ex vivo biodistribution in T-47D tumor-bearing mice. The settings on record: female, Fox Chase SCID (CB17/Icr-Prkdc^scid/IcrIcoCrl), mouse, in vivo, iv, total radioactivity. The protocol:
(§1) In vivo experiments. All animal experiments were performed in compliance with the German animal protection laws and protocols of the local committee (Regierungspräsidium Karlsruhe, approval number: 35-9185.81/G-206/15). 20, six week old female immunodeficient Fox Chase SCID (CB17/Icr-Prkdc^scid/IcrIcoCrl) mice with an average weight of 20 g were subcutaneously implanted with 17β-estradiol pellets (0.36 mg/60 days). 4 days later, the tumors were induced by subcutaneous inoculation of 5 × 10^6 T-47D cells into the left flank of the […]. After induction, the tumors were allowed to grow for 8–10 weeks and reached a diameter of about 0.5 cm. For imaging, the animals were anaesthetized with isoflurane and injected with 5.5–8.0 MBq of the respective radioligand ([^68Ga]24, [^68Ga]24a or [^68Ga]24b) into the lateral tail vein. Dynamic PET images were acquired over 90 min and CT images were obtained within further 30 min. After the end of the diagnostic scan, the animals were sacrificed, the organs were collected and measured in a gamma-counter.

A further data set relates to T-47D tumor-bearing mice. The description is as above. To be noted: mouse, in vivo. Here is the method: as §1

*1 amine or outer side, *2 acyl side, *3 side chain or, on linkers, in order; H or OH if unused. Where a SMILES comes first, the peptide text is derived from it. Bridges are numbered along the chain shown (N, C = ends). Roman numbers before positions name the chains, in order. [ ]: non-standard residue; d: D form. The star is where a group is joined. X1 = NC(=O)[C@H](CCCCNC(=O)CCC(C(=O)O)N1CCN(CC(=O)O)CCN(CC(=O)O)CC1)NC(=O)CCOCCOCCOCCOCCNC(=O)CN(CCCNC(=O)CCOCCOCCOCCOCCNC(=O)c1ccc(C=NOCC(=O)NCCOCCOCCOCCOCCC(=O)[*:2])cc1)CCCNC(=O)CCOCCOCCOCCOCCNC(=O)c1ccc(C=NOCC(=O)[*:1])cc1; DOTA = O=C(O)CN1CCN(CC(=O)O)CCN(CC(=O)*)CCN(CC(=O)O)CC1; Nle = CCCC[C@H](N)C(=O)O

The values that follow come from PMC6161111, “Design, Synthesis, In Vitro, and Initial In Vivo Evaluation of Heterobivalent Peptidic Ligands Targeting Both NPY(Y1)- and GRP-Receptors—An Improvement for Breast Cancer Imaging?” (Pharmaceuticals, 2018).

`CCCC[C@H](NC(=O)[C@H](CCCNC(=N)N)NC(=O)[C@H](Cc1c[nH]c2ccccc12)NC(=O)[C@H](CCCCNC(=O)CON=Cc1ccc(C(=O)NC2CCN(CC(=O)NC3CCN(CC(=O)NCCCN(CCCNC(=O)CN4CCC(NC(=O)CN5CCC(NC(=O)c6ccc(C=NOCC(=O)NCCOCCOCCOCCOCCC(=O)N[C@@H](CCC(N)=O)C(=O)N[C@@H](Cc7c[nH]c8ccccc78)C(=O)N[C@@H](C)C(=O)N[C@H](C(=O)NCC(=O)N[C@@H](Cc7c[nH]cn7)C(=O)N[C@@H](CC(C)C)C(=O)N[C@@H](CCSC)C(N)=O)C(C)C)cc6)CC5)CC4)CC(=O)NCCOCCOCCOCCOCCC(=O)N[C@@H](CCCCNC(=O)CCC(C(=O)O)N4CCN(CC(=O)O)CCN(CC(=O)O)CC4)C(N)=O)CC3)CC2)cc1)NC(=O)[C@@H]1CCCN1C(=O)[C@H](CC(N)=O)NC(=O)[C@@H](N)[C@@H](C)CC)C(=O)N[C@@H](CCCNC(=N)N)C(=O)N[C@@H](Cc1ccc(O)cc1)C(N)=O` (stereo partly drawn) [[^68Ga]26, metal not drawn] showed a specific cell uptake in the data set on T-47D cells of 46.4 ± 2.4%. Besides, the logD (commonly lipophilicity at a set pH, counting ionised and neutral species) in data set [1] was -1.52 ± 0.089.
In data set [1], `CCCC[C@H](NC(=O)[C@H](CCCNC(=N)N)NC(=O)[C@H](Cc1c[nH]c2ccccc12)NC(=O)[C@H](CCCCNC(=O)CN1CCN(CC(=O)O)CCN(CC(=O)O)CCN(CC(=O)O)CC1)NC(=O)[C@@H]1CCCN1C(=O)[C@H](CC(N)=O)NC(=O)[C@@H](N)[C@@H](C)CC)C(=O)N[C@@H](CCCNC(=N)N)C(=O)N[C@@H](Cc1ccc(O)cc1)C(N)=O` [[^68Ga]28, metal not drawn, reference compound] (H-INPK(DOTA)WR[Nle]RY-NH2) returned a logD of -1.98 ± 0.162.
Consider `CCCC[C@H](NC(=O)[C@H](CCCCNC(=O)CON=Cc1ccc(C(=O)NCCOCCOCCOCCOCCC(=O)NCCCN(CCCNC(=O)CCOCCOCCOCCOCCNC(=O)c2ccc(C=NOCC(=O)NCCOCCOCCOCCOCCC(=O)N[C@@H](CCC(N)=O)C(=O)N[C@@H](Cc3c[nH]c4ccccc34)C(=O)N[C@@H](C)C(=O)N[C@H](C(=O)NCC(=O)N[C@@H](Cc3c[nH]cn3)C(=O)N[C@@H](CC(C)C)C(=O)N[C@@H](CCSC)C(N)=O)C(C)C)cc2)CC(=O)NCCOCCOCCOCCOCCC(=O)N[C@@H](CCCCNC(=O)CCC(C(=O)O)N2CCN(CC(=O)O)CCN(CC(=O)O)CC2)C(N)=O)cc1)NC(=O)[C@H](CC(N)=O)NC(=O)[C@H](Cc1ccc(O)cc1)NC(=O)[C@@H]1CCCN1)C(=O)N[C@@H](CCCNC(=N)N)C(=O)N[C@@H](CCCNC(=N)N)C(=O)N[C@@H](Cc1c[nH]c2ccccc12)C(=O)N[C@H](C(N)=O)[C@@H](C)CC` (stereo partly drawn) [[^68Ga]24b, metal not drawn], for which the tissue to tissue ratio at 130 min in data set [2] (tumor-to-blood ratio (T / B)) was 0.91 ± 0.24. In data set [2] (tumor-to-muscle ratio (T / M)), the tissue to tissue ratio at 130 min amounted to 3.83 ± 0.8. Moreover, in the data set on T-47D tumor-bearing mice, the adrenal glands uptake came to 2.91 ± 1.13 ID/g in %, the blood uptake amounted to 2.02 ± 1.34 ID/g in %, the bone uptake amounted to 0.43 ± 0.23 ID/g in % and the brain uptake is listed as 0.07 ± 0.04 ID/g in %. In the data set with T-47D tumor-bearing mice, this compound came in with a heart uptake of 0.85 ± 0.52 ID/g in %, a kidneys uptake of 43.84 ± 25.05 ID/g in %, a large intestines uptake of 1.71 ± 0.69 ID/g in % and a liver uptake of 16.75 ± 0.85 ID/g in %. In addition, in the data set with T-47D tumor-bearing mice, the lung uptake is listed as 0.88 ± 0.07 ID/g in %, the muscle uptake is given as 0.48 ± 0.40 ID/g in %, the pancreas uptake came out at 8.30 ± 5.33 ID/g in % and the small intestines uptake is 1.53 ± 0.51 ID/g in %. In the data set with T-47D tumor-bearing mice, this compound displayed a spleen uptake of 2.12 ± 0.49 ID/g in %, a stomach uptake of 1.35 ± 0.43 ID/g in %, a tail uptake of 1.64 ± 0.94 ID/g in % and a tumor uptake of 1.84 ± 0.32 ID/g in %.
On to `CCCC[C@H](NC(=O)[C@H](CCCNC(=N)N)NC(=O)[C@H](Cc1c[nH]c2ccccc12)NC(=O)[C@H](CCCCNC(=O)CON=Cc1ccc(C(=O)NC2CCN(CC(=O)NCCCN(CCCNC(=O)CN3CCC(NC(=O)c4ccc(C=NOCC(=O)NCCOCCOCCOCCOCCC(=O)N[C@@H](CCC(N)=O)C(=O)N[C@@H](Cc5c[nH]c6ccccc56)C(=O)N[C@@H](C)C(=O)N[C@H](C(=O)NCC(=O)N[C@@H](Cc5c[nH]cn5)C(=O)N[C@@H](CC(C)C)C(=O)N[C@@H](CCSC)C(N)=O)C(C)C)cc4)CC3)CC(=O)NCCOCCOCCOCCOCCC(=O)N[C@@H](CCCCNC(=O)CCC(C(=O)O)N3CCN(CC(=O)O)CCN(CC(=O)O)CC3)C(N)=O)CC2)cc1)NC(=O)[C@@H]1CCCN1C(=O)[C@H](CC(N)=O)NC(=O)[C@@H](N)[C@@H](C)CC)C(=O)N[C@@H](CCCNC(=N)N)C(=O)N[C@@H](Cc1ccc(O)cc1)C(N)=O` (stereo partly drawn) [[^68Ga]25, metal not drawn], for which the specific cell uptake with T-47D cells is given as 48.2 ± 2.8%. Further, in data set [1], the logD was -1.55 ± 0.114.
Consider `CCCC[C@H](NC(=O)[C@H](CCCNC(=N)N)NC(=O)[C@H](Cc1c[nH]c2ccccc12)NC(=O)[C@H](CCCCNC(=O)CON=Cc1ccc(C(=O)NCCOCCOCCOCCOCCC(=O)NCCCN(CCCNC(=O)CCOCCOCCOCCOCCNC(=O)c2ccc(C=NOCC(=O)NCCOCCOCCOCCOCCC(=O)NCC(=O)N[C@@H](CC(C)C)C(=O)N[C@@H](Cc3c[nH]cn3)C(=O)N[C@H](C(=O)N[C@@H](CCSC)C(=O)N[C@@H](Cc3c[nH]c4ccccc34)C(=O)N[C@@H](CCC(N)=O)C(=O)N[C@@H](C)C(N)=O)C(C)C)cc2)CC(=O)NCCOCCOCCOCCOCCC(=O)N[C@@H](CCCCNC(=O)CCC(C(=O)O)N2CCN(CC(=O)O)CCN(CC(=O)O)CC2)C(N)=O)cc1)NC(=O)[C@@H]1CCCN1C(=O)[C@H](CC(N)=O)NC(=O)[C@@H](N)[C@@H](C)CC)C(=O)N[C@@H](CCCNC(=N)N)C(=O)N[C@@H](Cc1ccc(O)cc1)C(N)=O` (stereo partly drawn) [[^68Ga]24a, metal not drawn] (I: H-INPKWR[Nle]RY-NH2 / II: GLHVMWQA-NH2; linker I:4-II:N via X1), for which, in data set [2] (tumor-to-blood ratio (T / B)), the tissue to tissue ratio at 130 min came to 0.5 ± 0.47. Also, the tissue to tissue ratio at 130 min in data set [2] (tumor-to-muscle ratio (T / M)) worked out at 1.07 ± 1.14. In the data set with T-47D tumor-bearing mice, this compound had an adrenal glands uptake of 0.74 ± 0.40 ID/g in %, a blood uptake of 0.39 ± 0.37 ID/g in %, a bone uptake of 0.13 ± 0.08 ID/g in % and a brain uptake of 0.03 ± 0.02 ID/g in %. Moreover, in the data set on T-47D tumor-bearing mice, the heart uptake amounted to 0.18 ± 0.14 ID/g in %, the kidneys uptake is 29.72 ± 10.33 ID/g in %, the large intestines uptake stood at 0.24 ± 0.19 ID/g in % and the liver uptake amounted to 5.54 ± 0.31 ID/g in %. In the data set with T-47D tumor-bearing mice, this compound gave a lung uptake of 0.28 ± 0.04 ID/g in %, a muscle uptake of 0.26 ± 0.40 ID/g in %, a pancreas uptake of 0.15 ± 0.08 ID/g in % and a small intestines uptake of 0.43 ± 0.37 ID/g in %. In the data set with T-47D tumor-bearing mice, this compound returned a spleen uptake of 0.49 ± 0.14 ID/g in %, a stomach uptake of 0.39 ± 0.41 ID/g in %, a tail uptake of 0.46 ± 0.41 ID/g in % and a tumor uptake of 0.21 ± 0.15 ID/g in %.
`CSCC[C@H](NC(=O)[C@H](CC(C)C)NC(=O)[C@H](Cc1c[nH]cn1)NC(=O)CNC(=O)[C@@H](NC(=O)[C@H](C)NC(=O)[C@H](Cc1c[nH]c2ccccc12)NC(=O)[C@H](CCC(N)=O)NC(=O)CCOCCOCCOCCOCCNC(=O)CN1CCN(CC(=O)O)CCN(CC(=O)O)CCN(CC(=O)O)CC1)C(C)C)C(N)=O` [[^68Ga]27, metal not drawn, reference compound] came in with a logD in data set [1] of -1.86 ± 0.054.
